# Results from the RNAGym collection of RNA variant scans (doi:10.1073/pnas.2313332121).
# B1: TPR t1 (parent)
# chain: GACCAAUCUGCCCUCAGAGCUCGAGAACAUCUUCGGAUGCAGAGGAGGCAGGCUUCGGUGGCGCGAUAGCGCCAACGUCCUCAACCUCCAAUGCAUCCCACCACAUGAUGAUGCCUGAAGAGCCUUGGUUUUUUG
# Variants of: B1
# Assay: polymerase ribozyme fitness, log enrichment relative to wild type (log ratio); higher = more active; in vitro selection for triplet polymerase activity
# Outline: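 Mutant libraries for each subunit of a heterodimeric triplet polymerase ribozyme were made by PCR and then transcribed. Each library underwent one round of in vitro selection in triplicate: annealing with a biotinylated primer, the partner subunit and triplets, frozen incubation at −7 °C, gel excision of extended constructs, streptavidin-bead capture and RT-PCR. Input and output libraries were Illumina-sequenced, and only genotypes with ≥10 input reads and ≥1 read per output were kept. Fitness is the logarithm, base 2, of genotype enrichment over wild-type enrichment, computed from inverse-variance-weighted replicate averages.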
row,Variant,polymerase ribozyme fitness (log ratio)
1,A16U G47U G52U G65U C115U G117C,-6.26
2,G17A A41U A84C,-4.63
3,A16G G93A U109G,-5.43
4,A18G G60A C88U A90C,-4.63
5,G17U C88U G127C,-3.89
6,A18U C85G,-3.16
7,G19A A43U,-2.7
8,G17U C20G G52A C73A G113A A119G,-1.98
9,G17A G61A C73U A75C,-3.99
10,A18U C20U U87G,-2.42
11,A16G C124U,0.601
12,A16G U81A,-2.36
13,A18U C76A,-3.36
14,G17A C88U U133A,-3.95
15,G17U A29U C72U,-4.39
16,A16G A41C A50U U81A U106A,-2.3
17,G19A,-2.28
18,A16U G60C G117C U125A,-4.08
19,A16U C20A C56A,-5.28
20,A16U A43U U112C,-1.59
21,G19A C49G G63C G93C A105C G107C G117C,-6.07
22,A16U G47A C56G C86U C101A A121C,-0.796
23,G17U U78A C79G C115U,-6.15
24,G19A A50U G113C,-2.01

row,Variant,polymerase ribozyme fitness (log ratio)
1,A16U G52U G69A C76U U78C A121C,-3.43
2,A18U C20A C97G U109A U116A,-5.44
3,G17A A18C C114G C124A G135U,-5.65
4,A18C A43G C85G U96G,-4.07
5,G17U C72A,-1.86
6,A16U G93A,-2.35
7,A18C G63A U78G,-5.52
8,A16U C82U,-2.17
9,A18G U32A C76U C124G,-2.81
10,G17A A50U G51U C114G,-6.63
11,A16G U55A C102A A121U,-0.698
12,G17A C40A A43U,-5.48
13,A18C C56G,-2.15
14,A18U U55G C56G,-4.5
15,G17A A37U U54C C70U,-4.08
16,G17U C88U,-2.42
17,A16G A68G,-4.75
18,A18C G58U G69C C89U U106A G110U,-4.7
19,A18U A46U,-3.64
20,A18C U87G U132A,-2.91
21,A18G A121U,-1.13
22,G17C C80U A83U C115G,-2.85
23,A18U G60A C72U G122A U130G,-3.74
24,G17C A37U C64U U92A,-5.44

row,Variant,polymerase ribozyme fitness (log ratio)
1,A18G U81C C89U,-4.16
2,A18C A29G G61A,-2.27
3,G17U C115G,-0.423
4,G17U G47A G71C,-3.03
5,G17U G47A G71U,-3.24
6,G17U C31U C64G G93U C123A U130A,-5.64
7,G19A A83G C114G G122C,-4.41
8,G17U C49G C64U U131C,-2.89
9,A16U G77A G117U,-3.13
10,G17C C34U G42U C70A C123A,-6.07
11,A18G G36C G45U U112A,-2.4
12,A16U G45C C56G A83C,-4.35
13,A18C C79G A90U G113A,-4.1
14,A16U C62U C94U,-1.79
15,A18C U32C A37U A50U G60A G113A,-5.4
16,G17C G25U C34U G69U U112G,-7.59
17,A16U G93U C123A U133C,-3.02
18,G17C A29G C72A,-5.8
19,A16G G69U C73U C99U,-2.5
20,A18G G69A C88G G113C,-5.21
21,A16C G122A,-4.43
22,A18G C20A C64A A111G U112A,-6.09
23,G19A C20U,-1.54
24,G17U U38A G61U U125A,-3.94

row,Variant,polymerase ribozyme fitness (log ratio)
1,A18C G42U U54C C82G,-2.51
2,A16U A37C C53A A91G U112A,-1.42
3,A16U G51U,-4.76
4,G17U C34G A68U C72G C85A C123A,-7.76
5,A18U A43U C101G,-3.57
6,A16U C40G C56U U112G,-0.767
7,A16G C49G C56G,-4.65
8,G17C C73U,-4.07
9,A18U G63A,-3.69
10,A18U G63U,-4.1
11,A18C U109A,-5.77
12,A18C A27G A43U G44U G61A,-4.83
13,A18C G113U,-4.82
14,G17A A66G,-4.85
15,A18C G45A C49G G61A U133A,-4.6
16,A18G G117C,-3.04
17,G17A C53U U54A C64U U92G,-4.58
18,A18U G48U C64U C88U,-2.9
19,A18G U78A C86A C97A C102U U109A G113C,-6.86
20,A18U G58A U112A G122U,-2.54
21,A18C C115G A119G,1.41
22,A18C C49A U78G C114U,-4.02
23,A18U G42U A74G,-1.91
24,A18U G25A C34G C53U G61A A100U,-8.02

row,Variant,polymerase ribozyme fitness (log ratio)
1,A18G G120C,-0.633
2,A18G G120U,-2.46
3,G17U C34A U112A G120C,-6.92
4,A16U A46U C49A,-2.45
5,A18G A66U G113A U126C U133A,-4.19
6,A18C C88U A95G,-2.41
7,A18C U32C G120C,-0.763
8,A18C C40U A41G C56G,-3.24
9,A18C C20U,-1.33
10,G19A C20A C62U,-4.22
11,G19A C62U C88A A121C,-1.46
12,A18U G61A C70U C115A,-5.05
13,A18C U92G A121G,-0.659
14,A16U C73G,-2.59
15,G17C A29U U125G,-5.1
16,A16U C49A G69U,-1.01
17,A18U C88U,-2.25
18,A18U C62G A121U,-2.71
19,A18G C49G U87A C89A U116C A118G,-4.85
20,A16C G58C,-2.65
21,A16U G23A G36U A46C G47C C73A C114U U129G U132A,-7.62
22,A16C U87A C123G G128C,-1.81
23,G17C A90C A121C,-1.46
24,G17U A68G C73G U112C,-5.21

row,Variant,polymerase ribozyme fitness (log ratio)
1,A16G G44U G113C A119C G135A,-6.45
2,A18U A43U U59G G113A U125C,-2.05
3,A18U A41G U106A C124G,-1.51
4,G17U U55A G77C C86G C124U,-3.47
5,G17C U21A G39A U112C C115A,-1.1
6,A16G G65U C73G C89A C123A,-7.69
7,A18C C72U U92G A121G,-0.934
8,A18U C73U C101U G120A,-2.78
9,A18C G39C A41U G60C C123U,-4.26
10,G17A G36U G120C C123U C124G,-1.43
11,G17U G48A A50U G60A,-3.1
12,A18C A118U,-0.81
13,A18U G42A,-2.11
14,G17A C115U U125A,0.421
15,G17A C62G,-5.69
16,G19A C20G U106C G117A,-6.46
17,G17A G69U U81A U116A,-2.91
18,G19A C70U C76G U81C,-4.57
19,A18U G44A U54A U59A C86U U106A,-4.83
20,G17A U38G C115A U116A U131C,-2.73
21,G17A G36U,-3.69
22,A16G G71U C123U,-0.364
23,A18U U116C G117A,-4.83
24,A18U G57U C88U C101G,-6.08

row,Variant,polymerase ribozyme fitness (log ratio)
1,G17U C53G U96C U126C,-4.06
2,A18C A37C U112C,-1.3
3,A16U G69A C82G C97A C114U U133G,-5.51
4,A16G G69C A91U G113U,-3.01
5,A18U C98U A111C,-4.18
6,G17C C98U C102A A111G A121G G122A,-6.68
7,A18G G42A C72G G113A U132A,-2.54
8,G17C C56U,-3.79
9,A18C G45A C53U,-4.6
10,A16U C49A G63C,-1.43
11,A18C G52U A74U A95U A121G,-3.61
12,A18C C56G U59A A100U A111G G127C,-3.88
13,A16U G17C C123U U126C,-2.6
14,G17A C124G,0.0623
15,G17A C124U,-1.79
16,A16G G117C,-3.97
17,A16U A27U G61A,-4.42
18,G17C U54G C124U,-2.64
19,A16G G48A G110A,-2.05
20,A16U G63U,-4.13
21,A18G C124U,-0.797
22,A18C C104U C123G,0.269
23,G17A C49A G58A G110C,-6.79
